The results in this text go back to patent US20250388664A1 (BIOARCTIC, published 2025).

One assay addresses T1, AβpE3-42 protofibrils (UniProt P05067 674-713, pyroglutamate at position 3 (N-terminal residue)).
T1 construct: range 3-42 (Aβ numbering); Soluble aggregates made from AβpE3-42 peptide, purified in the void peak of SEC; also called AβpE3-42 PF
The assay can be described thus: inhibition ELISA, antigen titrated in solution, AβpE3-40 coat. On the procedure:
(§1) The tested molecules were incubated at a fixed concentration (0.1 μg/ml) with titrating concentrations of the different AβpE3 antigens. After incubation for 45 min at 900 rpm to reach equilibrium, the samples were added to a blocked and washed ELISA plate with an AβpE3-40 coat (0.5 μM). The samples were incubated on the plate for 25 min without shaking followed by washing, incubation with detection antibody, another washing step and finally incubation with alkaline phosphatase substrate.
A general note: An ELISA detects its analyte on a solid surface through an enzyme-linked reagent.

For assay [1], the target named is T2, AβpE3-40 monomer (UniProt P05067 674-711, pyroglutamate at position 3 (N-terminal residue)).
T2 construct: range 3-40 (Aβ numbering); Synthetic peptide (Bachem/Anaspec), verified monomeric by SEC; also called monomeric AβpE3-40
Described as above. On the procedure: as §1

Assay [2] has as its target T2, AβpE3-40 monomer. The assay can be described thus: SPR, antibody immobilised, monomer injected, 1:1 fit. The procedure:
Single cycle kinetics with the binding molecules immobilized on a CM5 chip was used to measure binding to the AβpE3-40 monomer. For the measurements, 5 μg/ml of analyte binding molecule was immobilized on the chip. […] Regeneration of the surface between cycles was done by injecting 30 μl 3 M MgCl₂ (Cytiva, cat. No. 29234600). The binding data was fitted to a 1:1 interaction model.

For assay [3], the target named is T3, truncated cTfR1 of SEQ ID NO:123 (cynomolgus monkey, UniProt Q5RDH6 122-760 (Pongo abelii entry)).
T3 construct: also called cynomolgus TfR1
T3 chain: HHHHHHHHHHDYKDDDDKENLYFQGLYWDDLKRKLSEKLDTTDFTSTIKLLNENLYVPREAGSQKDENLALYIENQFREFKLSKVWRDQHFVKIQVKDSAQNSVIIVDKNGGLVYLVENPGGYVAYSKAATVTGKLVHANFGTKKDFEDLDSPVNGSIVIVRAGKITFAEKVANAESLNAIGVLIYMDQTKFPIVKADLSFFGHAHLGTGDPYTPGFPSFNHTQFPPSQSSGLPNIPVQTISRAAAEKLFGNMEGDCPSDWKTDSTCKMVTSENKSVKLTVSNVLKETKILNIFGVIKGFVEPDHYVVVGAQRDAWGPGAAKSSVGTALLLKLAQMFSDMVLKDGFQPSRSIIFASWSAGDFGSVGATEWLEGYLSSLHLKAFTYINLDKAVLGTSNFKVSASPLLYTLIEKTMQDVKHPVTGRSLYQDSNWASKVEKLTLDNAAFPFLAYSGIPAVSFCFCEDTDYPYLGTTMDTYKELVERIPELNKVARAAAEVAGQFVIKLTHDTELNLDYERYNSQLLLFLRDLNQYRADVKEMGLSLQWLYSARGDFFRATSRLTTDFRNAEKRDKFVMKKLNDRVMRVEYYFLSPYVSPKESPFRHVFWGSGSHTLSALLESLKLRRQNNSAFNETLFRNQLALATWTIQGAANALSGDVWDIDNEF
Description: SPR, FLAG-captured TfR1, bispecific injected, 1:1 fit. On the procedure: (§2) Binding of the purified bispecific binding molecules produced in Example 47 to human and cynomolgus TfR1 was evaluated using SPR on a Biacore 8K instrument (Cytiva). […] The interaction was measured using the single cycle kinetics method with a contact time of 120 s at a flow rate of 30 μl/min followed by a dissociation time of 600 s. Regeneration of the surface between cycles was done by injecting 10 mM glycine-HCl, pH 1.7. The binding data was fitted to a 1:1 interaction model. The tested molecules were diluted in HBS-EP+ (Cytiva, #BR100669). Experiments were performed at 25° C.
(Surface plasmon resonance follows binding to a sensor surface in real time, without labels.)

Assay [4] deals with T4, truncated hTfR1 of SEQ ID NO:122 (human, UniProt P02786 122-760).
T4 construct: also called human TfR1; Human TfR1
Described as above. On the procedure:
as §2

Assay [5] deals with T2, AβpE3-40 monomer. The assay can be described thus: cell-based or functional assay.
Assay [6] deals with T2, AβpE3-40 monomer. Description: SPR, antibody immobilised, monomer injected, 1:1 fit. This is another data set of the same source.
The target in assay [7] is T4, truncated hTfR1 of SEQ ID NO:122. Description: SPR, FLAG-captured TfR1, bispecific injected, 1:1 fit. The source holds these as a separate data set.
In assay [8] the target is T5, h/m apical domain chimera (SEQ ID NO:112) (human/mouse chimera).
T5 construct: also called chimeric TfR1 consisting of human apical domain grafted on mouse TfR1 ectodomain
T5 chain: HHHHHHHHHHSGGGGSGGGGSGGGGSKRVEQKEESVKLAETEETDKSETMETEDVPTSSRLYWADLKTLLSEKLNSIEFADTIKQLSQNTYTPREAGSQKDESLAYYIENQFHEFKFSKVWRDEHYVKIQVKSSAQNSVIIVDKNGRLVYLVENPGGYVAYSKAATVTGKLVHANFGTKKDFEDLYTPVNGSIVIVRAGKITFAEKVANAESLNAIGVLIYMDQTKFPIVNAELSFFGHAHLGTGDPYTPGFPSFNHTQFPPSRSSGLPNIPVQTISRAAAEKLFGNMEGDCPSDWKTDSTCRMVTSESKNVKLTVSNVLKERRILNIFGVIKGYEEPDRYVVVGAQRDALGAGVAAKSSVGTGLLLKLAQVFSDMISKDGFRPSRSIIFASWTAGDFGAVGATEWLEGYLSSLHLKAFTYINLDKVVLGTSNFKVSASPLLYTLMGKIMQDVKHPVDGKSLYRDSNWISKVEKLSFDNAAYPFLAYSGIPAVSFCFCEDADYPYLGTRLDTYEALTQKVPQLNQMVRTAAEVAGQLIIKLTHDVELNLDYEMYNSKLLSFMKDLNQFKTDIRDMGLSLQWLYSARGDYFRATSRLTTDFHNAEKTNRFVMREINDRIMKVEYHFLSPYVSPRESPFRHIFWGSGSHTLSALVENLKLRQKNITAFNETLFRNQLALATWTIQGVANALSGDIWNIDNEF
Description: indirect ELISA: plate coated with 1 µg/ml h/m apical domain chimera, mouse IgG titrated, anti-mouse IgG-HRP; x axis printed as 'TfR (ng/ml)'. The procedure: Plasma samples serially diluted from a starting dilution of 1/450 or hybridoma supernatants diluted 1/2 were added to the plates (50 μl/well; dilution buffer: PBS with 0.1% BSA and 0.05% TWEEN®-20) and incubated for 2 h at room temperature and then the plates were washed four times. […] After another wash (as above), 50 μl/well TMB substrate (K-Blue® Aqueous, Neogen) was added, and the reaction was stopped after 10-15 min with 50 μl/well of 0.5 M H₂SO₄. The optical density at 450 nm was read using a plate reader (Tecan). The endpoint titers were defined as the dilution above the average of the blank wells (background) plus 3 standard deviations of the blank wells.
(§3) In the ELISA experiment, human, mouse or three different chimeric TfR1 receptors were used to coat ELISA plates (FIGS. 30A-30E). The ELISA protocol was slightly modified as follows from the indirect ELISA described in Example 15. […] The coated plates were then blocked. Dilution series of mouse IgG of the analyzed antibodies were prepared in PBS and incubated on the ELISA plates. Unbound antibodies were then washed off before incubating wells with a HRP-conjugated secondary, anti-mouse-IgG for 1 h. Plates were then washed again before addition of HRP substrate TMB for development and detection of antibody binding to the wells. TMB development was stopped by adding 0.5 M H₂SO₄ to the wells and ELISA responses measured as the OD at 450 nm in an ELISA plate reader.

In assay [9] the target is T6, h/m helical domain chimera (SEQ ID NO:113) (human/mouse chimera, UniProt Q62351 90-763 (mouse entry)).
T6 construct: also called chimeric TfR1 consisting of human helical domain grafted on mouse TfR1 ectodomain
T6 chain: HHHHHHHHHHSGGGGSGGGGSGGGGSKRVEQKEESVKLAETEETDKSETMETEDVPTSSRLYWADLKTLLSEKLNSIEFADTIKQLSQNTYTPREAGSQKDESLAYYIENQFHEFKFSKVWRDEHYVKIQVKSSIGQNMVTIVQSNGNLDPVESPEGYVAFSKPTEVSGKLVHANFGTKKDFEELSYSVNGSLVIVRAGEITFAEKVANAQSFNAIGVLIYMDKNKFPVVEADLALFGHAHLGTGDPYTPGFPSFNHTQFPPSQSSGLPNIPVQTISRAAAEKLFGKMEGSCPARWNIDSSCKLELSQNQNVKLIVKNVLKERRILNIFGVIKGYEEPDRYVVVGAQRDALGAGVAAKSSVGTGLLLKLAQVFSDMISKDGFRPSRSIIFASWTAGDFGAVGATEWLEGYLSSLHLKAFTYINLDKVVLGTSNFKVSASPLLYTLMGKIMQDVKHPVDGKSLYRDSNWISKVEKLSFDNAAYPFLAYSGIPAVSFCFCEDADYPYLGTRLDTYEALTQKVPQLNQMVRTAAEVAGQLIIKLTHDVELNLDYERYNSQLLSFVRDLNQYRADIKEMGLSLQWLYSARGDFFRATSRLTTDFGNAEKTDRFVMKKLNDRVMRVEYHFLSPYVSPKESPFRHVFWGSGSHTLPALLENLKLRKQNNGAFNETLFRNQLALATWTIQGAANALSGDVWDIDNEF
Description: indirect ELISA: plate coated with 1 µg/ml h/m helical domain chimera, mouse IgG titrated, anti-mouse IgG-HRP; x axis printed as 'TfR (ng/ml)'. The procedure: as §3

Read-outs that look alike come from different tables or passages of the source.

T2 sequence (P05067 674-711): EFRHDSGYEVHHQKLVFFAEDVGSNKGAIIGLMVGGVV
T1 sequence (P05067 674-713): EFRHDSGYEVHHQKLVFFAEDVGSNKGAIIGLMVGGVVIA

B1: BA001 (bispecific antibody, human IgG1, kappa)
light: EIVLTQSPLSLSVTLGQSASISCRSSQSLLDSNGKTYLHWFILRPGQSPRRLIYLVSILDSGVPDRFSGSGSGTDFTLKISRVEAEDVGVYYCVQGTHFPFTFGSGTKLEIKRTVAAPSVFIFPPSDEQLKSGTASVVCLLNNFYPREAKVQWKVDNALQSGNSQESVTEQDSKDSTYSLSSTLTLSKADYEKHKVYACEVTHQGLSSPVTKSFNRGEC
heavy 1: not shown
heavy 2: EVQLVQSGAEVVKPGASVRLSCKASGYSFTGFTMNWVRQALGQGLEWMGLINPYNGVTTYNQKFKGRLTMTRDMSTRTVYMDLSSLTYEDTAVYYCTREGNWEGVYWGQGTLVTVSSASTKGPSVFPLAPSSKSTSGGTAALGCLVKDYFPEPVTVSWNSGALTSGVHTFPAVLQSSGLYSLSSVVTVPSSSLGTQTYICNVNHKPSNTKVDKKVEPKSCDKTHTCPPCPAPELLGGPSVFLFPPKPKDTLMISRTPEVTCVVVDVSHEDPEVKFNWYVDGVEVHNAKTKPREEQYNSTYRVVSVLTVLHQDWLNGKEYKCAVSNKALPAPIEKTISKAKGQPREPQVYTLPPCRDELTKNQVSLWCLVKGFYPSDIAVEWESNGQPENNYKTTPPVLDSDGSFFLYSKLTVDKSRWQQGNVFSCSVMHEALHNHYTQKSLSLSPGGGGGSGGGGSGGGGSGGGGSDIQMTQSPSSVSASVGDRVTITCKSSQSLLYSTNQKNYLAWYQQKPGKAPKLLIYWASTRESGVPSRFSGSGSGTDFTLTISSLQPEDFATYYCQQYFIYPRTFGCGTKVEIKGGGGSGGGGSGGGGSGGGGSEVQLVQSGAEVKKPGSSVKVSCKASGYIFTDYNMDWVRQAPGQCLEWIGDINPDADTTSYNEKFKGRATLTVDKSTSTAYMELSSLRSEDTAVYYCARGGYSGSSYYHPMDYWGQGTLVTVSS
By IC50 is commonly meant the concentration that inhibits the measured activity by half. For orientation: Kd means the concentration at which binding is half-saturated. Low values mean a tighter complex, high ones a looser complex. In general, koff refers to the first-order rate constant of dissociation. A low value points to slow dissociation. As a reminder, the kon is a measure of how fast the partners come together. As for B1, the figures for the IC50 in the assay with AβpE3-42 protofibrils and with AβpE3-40 monomer [1] were 3.1 nM and 1.1 nM, respectively. Besides, the Kd is 2.17 nM in the assay with AβpE3-40 monomer [2]; 525 nM in assay [3]; 190 nM in [4]; 2.1 nM with AβpE3-40 monomer [6]; 174 nM in [7]. Besides, the koff was 0.00012 s⁻¹ with AβpE3-40 monomer [2]; 0.01 s⁻¹ in assay [3]; 0.0042 s⁻¹ in assay [4]; 0.00011 s⁻¹ in the assay with AβpE3-40 monomer [6]; 0.0038 s⁻¹ in [7]. Moreover, the kon was found to be 55800 M⁻¹ s⁻¹ with AβpE3-40 monomer [2]; 19000 M⁻¹ s⁻¹ in [3]; 22000 M⁻¹ s⁻¹ in assay [4]; 54000 M⁻¹ s⁻¹ in the assay with AβpE3-40 monomer [6]; 22000 M⁻¹ s⁻¹ in assay [7]. Besides, in the assay with AβpE3-40 monomer [5], the “Uptake of AβpE3-40 monomers in THP-1 cells, EC50” value was found to be 2 nM.

B2: 24B4 (antibody, V domains shown)
VH: EVQLQQFGAELVKPGTSVKISCKASGYTFTDYNMDWVKQGHGKGLEWIGDINPNYDTTSYSQKFKGKATLTVDKSSSTAYMELRSLTSEDTAVYYCARSEAGNYYWYFDVWGAGTTVTVSS
VL: DIVMSQSPSSLAVSVGEKVTMSCKSSQSLLYSSNRKNYLAWYRQKPGQSPKLLIYWASTRESGVPDRFTGSGSGTDFTLTISSVKAEDLAVYSCQQYYNYPYTFGGGTKLEIK
notes: also called mouse antibody 24B4; clone 24B4
Turning to B2, the binding result in assay [8] and in assay [9] was “no binding (tested: about 600 ng/ml)” throughout.
